Assays:
CCR7 = molecular target: T1, CCR7 (Homo sapiens, UniProt P32248); experiment: CCR7 signalling via Gαi (cAMP decrease, Camyel BRET) in transfected CHO cells; format: cell-based; conditions: BRET ratio; for G-protein signalling via CCR7 induced by the chemokine itself (comparison): FIG. 4A-D; for effect of peptide on CCL19-induced CCR7 signalling / effect of peptide on CCL19 chimera-induced CCR7 signalling / effect of peptide on full-length CCL21-induced CCR7 signalling / effect of peptide on tailless CCL21-induced CCR7 signalling: peptide 10 μM
T1 construct: expressed in transfected cells; host or cells: CHO cells, transient lipofectamine co-transfection with the Camyel cAMP BRET sensor
T1 sequence (P32248 25-378): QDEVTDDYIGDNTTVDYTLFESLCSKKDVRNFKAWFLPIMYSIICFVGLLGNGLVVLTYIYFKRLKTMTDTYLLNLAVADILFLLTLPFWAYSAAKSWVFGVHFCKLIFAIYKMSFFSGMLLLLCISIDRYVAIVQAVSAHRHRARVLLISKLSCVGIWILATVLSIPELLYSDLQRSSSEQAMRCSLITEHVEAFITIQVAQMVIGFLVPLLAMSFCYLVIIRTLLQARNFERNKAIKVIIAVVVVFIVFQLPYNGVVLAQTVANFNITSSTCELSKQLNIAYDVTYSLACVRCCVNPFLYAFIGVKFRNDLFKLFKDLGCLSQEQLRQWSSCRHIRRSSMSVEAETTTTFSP
Procedure: CCR7 signalling induced by CCL19, CCL21, CCL19 chimera (CCL19 with CCL21 tail) and tailless CCL21 was investigated. Signalling was detected as a decrease in cAMP which is reflected by an increase in BRET (Bioluminescence resonance energy transfer) ratio.
CHO cells were grown in RPMI medium with 10% FBS and 1% Penicillin/Streptomycin. Cells where seeded in a concentration yielding 1,000,000 cells/well on transfection day (using 6-well-plates).
Cells were transfected with CCR7 and Camyel-encoding plasmids (in 1:5 ratio) using lipofectamine with a total of […] of DNA and […] lipofectamine per well. After 24 hours, the cells where washed in PBS and resuspended in PBS with glucose (final concentration 5 mM).
After harvesting, cells where pooled in two groups. One group was used as a control, whereas the other was supplemented with SEQ ID NO: 1 (CCL21 tail peptide (D1-4)) in a final concentration of 10 μM.
The cells where plated in a 96-well black-white iso plate according to setup. Coelenterazine (final concentration of 5 μM) was added and cells were incubated for 10 min. The 4 ligands (CCL19, CCL21, CCL19 chimera, and tailless CCL21) were added to respective wells. An equal amount chemokine buffer was added to wells without ligands. Forskolin was added to the wells 5 min after addition of ligands.
The BRET ratio was measured as the ratio eYFP/RLuc (BRET 525 emission/BRET 485 emission). In the absence of ligand, bioluminescence resonance energy transfer (BRET) between RLuc and eYFP, both harboured by the Camyel sensor, is high, giving rise to emission from both RLuc and eYFP and a concomitant high BRET ratio. When cAMP binds to the camyel sensor, bioluminescence resonance energy transfer from RLuc to eYFP is decreased, lowering emission from eYFP and thus lowering the BRET ratio. This means that stimulation of receptors that signal via an increase in cAMP leads to a decrease in BRET ratio. The opposite is the case upon stimulation of chemokine receptors that signal via a decrease in cAMP, giving rise to an increase in eYFP and thus BRET ratio.

neutrophil = conditions: through inhibition of GAG-binding of CXCL8; cited from earlier work
[1] = tested on: monocyte derived human DCs (moDC); experiment: Ibidi 3D μ-slide chemotaxis assay of monocyte derived human DCs (moDC); format: cell-based; conditions: for potentiating effect on CCL21 induced chemotaxis of moDC (in words): FIG. 3, 6, 7, 8; for potentiation of moDC chemotaxis induced by CCL19: CCL19 1 and 10 nM, FIG. 1 column 5-8
Procedure: Ibidi3D μ-slide chemotaxis assay. Mature monocyte derived human DCs were thawed by adding pre-warmed X-vivo, 2% FCS and Glutamine, dissolving in a total of 10 ml of medium. After centrifugation (220×g, 5 min), the DCs were resuspended in fresh medium and left to acclimatize for 20 min.
The collagen mixture with cells was prepared according to the manufacturer's protocol. Briefly, 10 μl 7.5% NaHCO3 was mixed with 20 μl 10×MEM and 150 μl Pure Col was added. After mixing, 90 μl of a mixture of DCs (1×10^6 cells/ml) and CCL21 Tail peptide (final concentration 10 μM) was added. The cell/collagen solution was transferred to the ibidi μ-slide channel holding 6 μl. The collagen with cells was allowed to crosslink in the incubator for 45 minutes in a humidified petridish (holding napkins wetted in sterile water). While filling sink and source reservoirs, the channel and second reservoir were kept plugged. Medium with chemokine buffer (X-vivo 15, 2% HS, glutamine) and Tail-peptide was added to the sink (60 μl), and medium with chemokine plus Tail-peptide was added to the source (60 μl). The setup was transferred to Time-lapse. Cells were tracked for 10 hours and films were analyzed using Autozell tracking program. A population based chemotactic index (CI) was extracted using MatLab.

[2] = tested on: CT26-FL3-luc cancer cells; experiment: In vivo cancer growth of CT26-FL3-luc cells in Balb/c mice (bioluminescence, IVIS); conditions: FIG. 5; for tumor growth (bioluminescent signal, total flux): Balb/c mice
Procedure: SEQ ID NO: 1 was tested for its effect on in vivo cancer growth in mice. Female Balb/c mice were injected intraperitoneally with 1.5×10^5 CT26-FL3-luc cancer cells on day 0. The CT26-FL3-luc cell line is derived from a highly metastatic murine colorectal cancer and has been engineered to express luciferase. On days 1, 2, and 3, the mice were injected intraperitoneally with either 0.25 μg murine CCL21, 20 μg human CCL21-Tail peptide (SEQ ID NO: 1), or vehicle (PBS). The CCL21 concentration was determined based on previously published in vivo experiments using CCL21. Administration of SEQ ID NO: 1 functions by a different mechanism than administration of CCL21 as SEQ ID NO: 1 affects the distribution of endogenous CCL21 in the surrounding tissue. Cancer growth was followed over time in live animals by injecting luciferin intraperitoneally and measuring the bioluminescent signal arising from the luciferase-expressing cancer cells using an In Vivo Imaging System (IVIS®) scanner. The bioluminescent signal (total flux) was used to quantify the cancer growth. The number of mice per group was 5-7, and data is shown as mean±SEM.

[3] = tested on: monocyte derived human DCs (moDC); experiment: Ibidi 3D μ-slide chemotaxis assay of monocyte derived human DCs (moDC); format: cell-based; conditions: 10 nM CCL21; peptide dose dependent; FIG. 1 column 1-4
tumour cells = conditions: CCL21 administered to tumor sites; cited from earlier work

CCL19: chemokine, endogenous ligand of CCR7
G-protein signalling via CCR7 induced by the chemokine itself (comparison) (CCR7): more potent than CCL21

CXCL9(74-103): CXCL9 C-terminal peptide capable of binding GAGs (Vanheule et al. 2017) (KKKQKNGKKHQKKKVLKVRKSQRSRQKKTT; UniProt Q07325 96-125, looked up, fragment)
CXCL8-induced neutrophil migration (neutrophil): inhibit CXCL8-induced neutrophil migration

KDRGASKTG KKGKGSKGCK RTERSQTPKG P (KDRGASKTGKKGKGSKGCKRTERSQTPKGP; listed as Homo sapiens) [SEQ ID NO: 6, CCL21 82-111]
potentiating effect on CCL21 induced chemotaxis of moDC (in words) [1]: reduced capability to potentiate chemotaxis

PSPQKPAQGCRKDRGASKTGK (PSPQKPAQGCRKDRGASKTGK; listed as Homo sapiens) [SEQ ID NO: 36, C terminally truncated fragment of CCL21 71-111]
potentiating effect on CCL21 induced chemotaxis of moDC (in words) [1]: did not potentiate chemotaxis

PSPQKPAQGCRKDRGASKTGKKGKGSKGCKRTERSQTPKGP (PSPQKPAQGCRKDRGASKTGKKGKGSKGCKRTERSQTPKGP; listed as Homo sapiens) [SEQ ID NO: 1, full length C-terminal tail of CCL21, CCL21 71-111 (D1-D4)]
potentiation of moDC chemotaxis induced by CCL19 ([1]; peptide 10 uM): less than two fold | potentiation of moDC chemotaxis induced by CCL19 ([1]; peptide 10 uM, listed as CCL21 71-111): only two fold | potentiation of moDC chemotaxis induced by CXCL12gamma ([1]; CXCL12gamma 20 and 100 nM, peptide 10 uM, FIG. 1 column 9-12): no strong chemotaxis signal | potentiating effect on CCL21 induced chemotaxis of moDC (in words) [1]: retained full potency | tumor growth (bioluminescent signal, total flux) ([2]; 20 μg peptide intraperitoneally on days 1, 2, 3): decreased tumor growth | effectiveness on tumor growth compared with CCL21 treatment ([2]; 20 μg peptide vs 0.25 μg murine CCL21, intraperitoneally): more effective than treatment with the chemokine CCL21 | potentiation of moDC chemotaxis induced by CCL21 [3]: up to 26 fold | effect of peptide on CCL19-induced CCR7 signalling (CCR7; FIG. 4): no effect | effect of peptide on CCL19 chimera-induced CCR7 signalling (CCR7; FIG. 4): potentiated | effect of peptide on full-length CCL21-induced CCR7 signalling (CCR7; FIG. 4): potentiated | effect of peptide on tailless CCL21-induced CCR7 signalling (CCR7; FIG. 4): no effect | effect of peptide on CCL19-induced CCR7 signalling (CCR7; FIG. 4, listed as CCL21 71-111): essentially no difference in CCR7 signalling | effect of peptide on CCL19 chimera-induced CCR7 signalling (CCR7; FIG. 4, listed as CCL21 71-111): increased CCR7 signalling | effect of peptide on full-length CCL21-induced CCR7 signalling (CCR7; FIG. 4, listed as CCL21 71-111): increased CCR7 signalling | effect of peptide on tailless CCL21-induced CCR7 signalling (CCR7; FIG. 4, listed as CCL21 71-111): essentially no difference in CCR7 signalling

RKDRGASKTGKKGKGSKGCKRTERSQTPKGP (RKDRGASKTGKKGKGSKGCKRTERSQTPKGP; listed as Homo sapiens) [SEQ ID NO: 4, CCL21 81-111 (D2-D4)]
potentiating effect on CCL21 induced chemotaxis of moDC (in words) [1]: retained full potentiating effect

TG KKGKGSKGCK RTERSQTPKG P (TGKKGKGSKGCKRTERSQTPKGP; listed as Homo sapiens) [SEQ ID NO: 13, CCL21 89-111]
potentiating effect on CCL21 induced chemotaxis of moDC (in words) [1]: retain full potentiating effect

B1: SDGGAQDCCLKYSQRKIPAKVVRSYRKQEPSLGCSIPAILFLPRKRSQAELCADPKELWVQQLMQHLDKTPSPQKPAQGCRKDRGASKTGKKGKGSKGCKRTERSQTPKGP (protein, listed as Homo sapiens)
chain: SDGGAQDCCLKYSQRKIPAKVVRSYRKQEPSLGCSIPAILFLPRKRSQAELCADPKELWVQQLMQHLDKTPSPQKPAQGCRKDRGASKTGKKGKGSKGCKRTERSQTPKGP
notes: chemokine, endogenous ligand of CCR7; full length CCL21 without the signal peptide
growth of tumour cells (tumour cells): reduced growth of the tumour cells

B2: CCL19 chimera: CCL19 with CCL21 Tail peptide attached at the C-terminus (protein)
chain: GTNDAEDCCLSVTQKPIPGYIVRNFHYLLIKDGCRVPAVVFTTLRGRQLCAPPDQPWVERIIQRLQRTSAKMKRRSSPSPQKPAQGCRKDRGASKTGKKGKGSKGCKRTERSQTPKGP
G-protein signalling via CCR7 induced by the chemokine itself (comparison) (CCR7): resembles CCL21 signalling

B3: murine CCL21: murine chemokine CCL21 injected intraperitoneally as comparison treatment (protein, UniProt P84444 24-133, looked up)
C-C motif chemokine 21a: SDGGGQDCCLKYSQKKIPYSIVRGYRKQEPSLGCPIPAILFSPRKHSKPELCANPEEGWVQNLMRRLDQPPAPGKQSPGCRKNRGTSKSGKKGKGSKGCKRTEQTQPSRG
tumor growth (bioluminescent signal, total flux) ([2]; 0.25 μg murine CCL21 intraperitoneally on days 1, 2, 3): decreased tumor growth

From patent US20210030838A1, “CHEMOTAXIS-POTENTIATING PEPTIDES AND USES THEREOF” (University of Copenhagen, priority 2017, published 2021)
